Test results as given in IntAct's records for PubMed 20389280.

B1: Kelch-like protein 20 (Homo sapiens), Q9Y2M5 (parent)
chain: MEGKPMRRCTNIRPGETGMDVTSRCTLGDPNKLPEGVPQPARMPYISDKHPRQTLEVINLLRKHRELCDVVLVVGAKKIYAHRVILSACSPYFRAMFTGELAESRQTEVVIRDIDERAMELLIDFAYTSQITVEEGNVQTLLPAACLLQLAEIQEACCEFLKRQLDPSNCLGIRAFADTHSCRELLRIADKFTQHNFQEVMESEEFMLLPANQLIDIISSDELNVRSEEQVFNAVMAWVKYSIQERRPQLPQVLQHVRLPLLSPKFLVGTVGSDPLIKSDEECRDLVDEAKNYLLLPQERPLMQGPRTRPRKPIRCGEVLFAVGGWCSGDAISSVERYDPQTNEWRMVASMSKRRCGVGVSVLDDLLYAVGGHDGSSYLNSVERYDPKTNQWSSDVAPTSTCRTSVGVAVLGGFLYAVGGQDGVSCLNIVERYDPKENKWTRVASMSTRRLGVAVAVLGGFLYAVGGSDGTSPLNTVERYNPQENRWHTIAPMGTRRKHLGCAVYQDMIYAVGGRDDTTELSSAERYNPRTNQWSPVVAMTSRRSGVGLAVVNGQLMAVGGFDGTTYLKTIEVFDPDANTWRLYGGMNYRRLGGGVGVIKMTHCESHIW

Variants of: B1
Details: with cul3_human CUL3, Q13618

Effect of a mutation on the interaction, disrupting interaction:
L148A
V109A
I111A
C146A
L150A
